Ends that are not written are not given here. * marks the point of attachment. Biotin = O=C1N[C@H]2[C@H](CS[C@H]2CCCCC(=O)*)N1
Assays:
Assay in all cases: labelled AK1967 on biotinylated peptide on avidin plate, chemiluminescence
[1] = molecular target: T1, epitope mapping peptide #2
T1 peptide: Biotin-AFNFDQETVINPETGEQIQ
Experimental: (§1) These peptides include the sequence of the full immunization peptide (SEQ ID No. 2) or fragments thereof, with stepwise removal of one amino acid from either C- or N-terminus (see table 5 for a complete list of peptides).
(§2) High binding 96 well plates were coated with 2 µg Avidin per well (Greiner Bio-One international AG, Austria) in coupling buffer (500 mM Tris-HCl, pH 7.8, 100 mM NaCl). Afterwards plate were washed and filled with specific solutions of biotinylated peptides (10 ng/ well; buffer – 1xPBS with 0.5% BSA)
(§3) The plates were filled with 200 µl of labeled and diluted detection antibody (tracer) and incubated for 4 h at room temperature. Unbound tracer was removed by washing 4 times with 350 µl washing solution (20 mM PBS, pH 7.4, 0.1 % Triton X-100). Well-bound chemiluminescence was measured by using the Centro LB 960 luminometer (Berthold Technologies GmbH & Co. KG).

[2] = molecular target: T2, epitope mapping peptide #10
T2 peptide: Biotin-AFNFDQETVIN
Experimental: as §1, §2, §3

[3] = molecular target: T3, epitope mapping peptide #15
T3 construct: final K stands where DPP3 has R
T3 peptide: VINPETGEQIQSWYK(Biotin)
Experimental: as §1, §2, §3

[4] = molecular target: T4, epitope mapping peptide #6
T4 peptide: Biotin-AFNFDQETVINPETG
Experimental: as §1, §2, §3

[5] = molecular target: T5, epitope mapping peptide #8
T5 peptide: Biotin-AFNFDQETVINPE
Experimental: as §1, §2, §3

[6] = molecular target: T6, epitope mapping peptide #5
T6 peptide: Biotin-AFNFDQETVINPETGE
Experimental: as §1, §2, §3

[7] = molecular target: T7, epitope mapping peptide #11
T7 construct: final K stands where DPP3 has R
T7 peptide: ETGEQIQSWYK(Biotin)
Experimental: as §1, §2, §3

[8] = molecular target: T8, epitope mapping peptide #14
T8 construct: final K stands where DPP3 has R
T8 peptide: INPETGEQIQSWYK(Biotin)
Experimental: as §1, §2, §3

[9] = molecular target: T9, epitope mapping peptide #17
T9 construct: final K stands where DPP3 has R
T9 peptide: ETVINPETGEQIQSWYK(Biotin)
Experimental: as §1, §2, §3

[10] = molecular target: T10, epitope mapping peptide #13
T10 construct: final K stands where DPP3 has R
T10 peptide: NPETGEQIQSWYK(Biotin)
Experimental: as §1, §2, §3

[11] = molecular target: T11, epitope mapping peptide #4
T11 peptide: Biotin-AFNFDQETVINPETGEQ
Experimental: as §1, §2, §3

[12] = molecular target: T12, epitope mapping peptide #3
T12 peptide: Biotin-AFNFDQETVINPETGEQI
Experimental: as §1, §2, §3

[13] = molecular target: T13, epitope mapping peptide #1 (N-terminal biotin)
T13 peptide: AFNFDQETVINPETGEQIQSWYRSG
Experimental: as §1, §2, §3

[14] = molecular target: T14, epitope mapping peptide #9
T14 peptide: Biotin-AFNFDQETVINP
Experimental: as §1, §2, §3

[15] = molecular target: T15, epitope mapping peptide #12
T15 construct: final K stands where DPP3 has R
T15 peptide: PETGEQIQSWYK(Biotin)
Experimental: as §1, §2, §3

[16] = molecular target: T16, epitope mapping peptide #16
T16 construct: final K stands where DPP3 has R
T16 peptide: TVINPETGEQIQSWYK(Biotin)
Experimental: as §1, §2, §3

binding result [1]: binds
binding result [2]: no binding
binding result [3]: binds
binding result [4]: binds
binding result [5]: no binding
binding result [6]: binds
binding result [7]: no binding
binding result [8]: binds
binding result [9]: binds
binding result [10]: no binding
binding result [11]: binds
binding result [12]: binds
binding result [13]: binds
binding result [14]: no binding
binding result [15]: no binding
binding result [16]: binds
B1: murine monoclonal anti-DPP3 antibody AK1967 (clone 1967) (antibody, V domains shown)
VH: QVTLKESGPGILQPSQTLSLTCSFSGFSLSTSGMSVGWIRQPSGKGLEWLAHIWWNDNKSYNPALKSRLTISRDTSNNQVFLKIASVVTADTGTYFCARNYSYDYWGQGTTLTVSS
VL: DVVVTQTPLSLSVSLGDPASISCRSSRSLVHSIGSTYLHWYLQKPGQSPKLLIYKVSNRFSGVPDRFSGSGSGTDFTLKISRVEAEDLGVYFCSQSTHVPWTFGGGTKLEIK
notes: Acridinium-labelled in the plate assays
